# Experimental data: patent publication US20180112001A1 (Regeneron, published 2018)
# How the values were obtained:
# [1] = biological target: T1, human MUC16 (mucin 16), endogenously expressed on cells (human); experiment: MSD electrochemiluminescence cell binding; RLU ratio OVCAR-3/SK-OV-3; Ab 16.7 nM
# T1 construct: Endogenous MUC16 on OVCAR-3 / OVCAR3-Luc / PEO-1 / HPAC cells; also called hMUC16
# [2] = biological target: T1, human MUC16 (mucin 16), endogenously …; experiment: MSD electrochemiluminescence cell binding; RLU ratio OVCAR-3/SK-OV-3; Ab 1.9 nM
Binder,Ratio: anti-MUC16 Binding OVCAR-3/SK-OV-3 [1] [ratio],Ratio: anti-MUC16 Binding OVCAR-3/SK-OV-3 [2] [ratio]
"H2M9538N (antibody, V domains shown) VH: QVQLQESGPGLVKPSETLSLTCTVSGGSISSYYWSWIRQPPGKGLEWIGYIYYSGSTNYNPSLKSRVTISVDTSKNQFSLKLSSVTAADTAVYYCARKKLVFDYWGQGTLVTVSS VL: not shown",26,89
"H1H9538N (antibody, V domains shown) VH: QVQLQESGPGLVKPSETLSLTCTVSGGSISSYYWSWIRQPPGKGLEWIGYIYYSGSTNYNPSLKSRVTISVDTSKNQFSLKLSSVTAADTAVYYCARKKLVFDYWGQGTLVTVSS VL: not shown",13,12
"H1H9524N (antibody, human IgG1, V domains shown, Human IgG1 Fc version) VH: QVQLQQWGAGLLKPSETLSLTCAVYGGSFSDYYWSWIRQPPGKGLEWIGEINHRGKTNYNPSLKSRVSISVDPSKNQFSLKLSSVTAADTAVYYCARQGWNYAIFDYWGQGILVPVSS VL: not shown",48,20

# The next lines start with the values.
Ratio: anti-MUC16 Binding OVCAR-3/SK-OV-3 [1] [ratio],Ratio: anti-MUC16 Binding OVCAR-3/SK-OV-3 [2] [ratio],Binder
21,4,"H1H9525N (antibody, human IgG1, V domains shown, Human IgG1 Fc version) VH: QVQLQQWGAGLLKPSETLSLTCAVYGGSFSGYYWSWIRQPPGKGLEWIGEINHSGKTTYSPSLKSRVTISVDTSKSQFSLKLSSVTAADTAVYYCARQGLNYAIFDYWGQGTLVTVSS VL: not shown"
18,41,"H1H9528N (antibody, human IgG1, V domains shown, Human IgG1 Fc version) VH: QMQLQESGPGLVKPSETLSLTCTVSGGSISSYYWNWIRQPPGKGLEWIGYIYYSGNNFNPSLKSRVTISVDTSKNQFSLKLSSVTAADTAVYYCARAFHWNYEFDYWGQGTLVTVSS VL: EIVLTQSPGTLSLSPGERATLSCRASQSVSNNYLAWYQQKPGQAPRLLLYGASSRTTDIPDRFSGSGSGTDFTLTISRLEPEDFAVYYCQQYDNSPLTFGGGTKVEIR"
74,109,"H1H9529N (antibody, human IgG1, V domains shown, Human IgG1 Fc version) VH: QVQLQQWGAGLLKPSETLSLTCAVYGGSFSGFYWSWIRQPPGKGLEWIGEINHSGSAKYNPSLKNRVIISIDTSKNQFSLKLDSVTAADTAVYNCARQGWNFAIFDYWGQGTLVDVSS VL: DIVMTQSPDSLAVSLGGRATINCKSSQSVLHSSYNKDHLAWYQQRPGQPPKLLIYWASTRESGVPDRFSGSGSGTDFTLTISSLQAEDVAVYYCQQYNILPPTFGQGTRVEIK"
